The target of experiment [1] is intermediate horseshoe bat ACE2 (bACE2-Ra), peptide domain, residues 19-615 (Rhinolophus affinis (intermediate horseshoe bat)). In words: SPR.
Experiment [2] deals with bACE2-Ra-eGFP, full length, on BHK-21 cells (Rhinolophus affinis (intermediate horseshoe bat)). The experiment can be described thus: flow cytometry on cells.
Experiment [3] deals with intermediate horseshoe bat ACE2 (bACE2-Ra), peptidase domain, residues 19-615 (Rhinolophus affinis (intermediate horseshoe bat)). The experiment can be described thus: SPR. (Surface plasmon resonance follows binding to a sensor surface in real time, without labels.)

This passage reports Kd and double-positive rate results from paper PMC9305271.

Consider “SARS-CoV-2 receptor-binding domain (RBD) (from UniProt P0DTC2 319-541) (domain or fragment)”, for which the dissociation constant Kd (usually the concentration at which binding is half-saturated) in experiment [1] is 448 nM. The same substance had a double-positive rate in experiment [2] of 31.6%.
Substance “SARS-CoV-2 receptor-binding domain (prototype), residues 319-541 (from UniProt P0DTC2 319-541) (domain or fragment)” had a Kd in experiment [3] of 547 nM.
